Data on three molecules can be found in patent US20260116956A1, “ANTIBODY BASED TREATMENT TO REDUCE GUT BACTERIAL GLYCAN AND ASSOCIATED BACTERIA” (priority 2022, published 2026).

Assay [1] has as its system intestinal permeability of RG strain colonized mice. Conditions: 0.15 mg/ml in drinking water, 10 days. The protocol: For each group mean+/−standard deviation (SD) (FIG. 9A). […] For the bottom panels, significance was tested by paired t test. *p<0.05 was considered statistically significant.
In vivo assay of intestinal permeability. To assess intestinal permeability, after a 4-hours fasting from food and water, mice were orally gavaged with 4,000-Da fluorescein (FITC)-dextran (FD4) (Sigma-Aldrich, St. Louis, MO) (250 mg/kg body weight) in doses of 200 μl, and blood was collected 3 hours later. The concentration of the FD4 was determined using a fluorimeter with an excitation wavelength of 490 nm and an emission wavelength of 530 nm. To assess concentration, FD4 in serum was then serially diluted to establish a standard curve.
Leaky gut recovery studies. Zonulin antagonist, larazotide acetate (known as AT-1001, or INN-202), was purchased from BOC Sciences, NY. Individual neonatally-colonized littermates from SPF mice, colonized with different RG strains, were retested after FD4 challenge, and those with abnormal levels then each received 0.15 mg/ml of the zonulin antagonist in drinking water, which was refreshed every day, for 10 consecutive days. After 24 hours rest, intestinal permeability was then retested.

Assay [2] concerns purified LG from the RG2 strain. Kind of assay: Direct binding ELISA, purified lipoglycan from RG2 strain. The arrangement: species or system Ruminococcus gnavus. Conditions: antigen coated on ELISA plate. As for the experimental part: (§1) In this assay, LG or nuclease-treated RG strain extracts were precoated overnight onto the well, then after blocking with bovine serum albumin, the mAbs, or isotype control at 1 μg/ml were incubated for 4 hours, then washed and developed (see below-described methods) (FIG. 15A). Immunoblot with mAb 33.2.3 (FIG. 15B) and immunoblot with 34.2.2 mAb (FIG. 15C), detect antigenically related LG oligobands in extracts of R. gnavus strains isolated from active Lupus nephritis strains. In each panel is shown samples of purified lipoglycan from the Lupus S47-18 strain, and the RG2 strain of R. gnavus. At left, extracts of whole bacteria are shown for the RG1 strain (from a healthy donor), and the Lupus-derived strains; S107-48, S107-86, S47-18, and for the RG2 strain.
(§2) Assays of antigen-reactive IgG antibodies. A custom multiplex bead-based array for the Magpix platform (Luminex, Austin TX) was created by coupling a variety of highly purified thymic native DNAs, purified cell wall lipoglycan (LG) from the RG2 strain (i.e., IgG anti-RG2 LG (formerly termed LG3) (Azzouz et al., 2019)), and the Lupus RG strain S47-18 (i.e., IgG anti-S47-18 strain LG), recombinant S. aureus proteins, endotoxins, and other bacterial antigens and control ligands, to individual microspheres, adapting the manufacturer's protocol and previous reports (Pelzek et al., 2017; Pelzek et al., 2018b; Radke et al., 2018). For antigen-reactive IgG detection, 1,000 microspheres per analyte per well were premixed, sonicated, and then diluted with addition of 100 μl of serum, as indicated. For ELISA bound IgG antibodies were detected with Fc-gamma-specific anti-murine IgG HRP (eBioscience, San Diego CA), and for multiplex bead-based assay with anti-mouse IgG (Fc-specific) F(ab′)2 PE (Jackson ImmunoResearch, West Grove PA). Data were acquired on a Magpix instrument (Luminex) and reported as mean fluorescence intensity (MFI) values, as previously described (Pelzek et al., 2017; Pelzek et al., 2018a; Radke et al., 2018). Plasma zonulin were quantitated with a commercial ELISA Kit. (MyBioSource, San Diego CA.).
(§3) Direct binding ELISA. To detect the reactivity of the murine monoclonal antibodies (mAb) […] and mAb 34.2.2 with the different RG strains, the ELISA plates were coated with the bacterial extracts from RG2, S47-18, S107-48, S107-86, RG1 as well as with the purified lipoglycan from the strains RG2 and S47-18. Next, the murine monoclonal antibodies were added at two concentrations (at 100 ng/ml and 25 ng/ml) in duplicate, incubated for 2 h at RT. Binding was detected with goat anti mouse IgG HRP conjugated at 1:10,000 (Jackson ImmunoResearch), then TMB substrate was added to develop the plate.

The test system of assay [3] is extract of Lupus RG strain S107-86. Kind of assay: Immunoblot, S107-86 extract. In kind it is binding, Ruminococcus gnavus. As for the experimental part: as §1
(§4) Immunoblotting. Electrophoretic separation used Bis-Tris mini gels (Novex, Thermo Fisher) with bacterial extracts loaded at the same concentration, then transferred to membranes, which were incubated with sera diluted at 1:100, and incubated overnight at 4° C. For detection, anti-human IgG biotin conjugated (Jackson ImmunoResearch Labs, USA) was added and developed by IRDye® 800CW Streptavidin (LI-COR®).

Assay [4] relates to extract of Lupus RG strain S107-48. Description: Immunoblot, S107-48 extract. It is filed as binding, Ruminococcus gnavus. The protocol: (§5) LPS from a Pseudomonas species.
as §1
(§6) To generate RG-specific monoclonal antibodies, 10 BALB/c mice were immunized with extract of the (CC55_001C), termed RG2 strain, emulsified in complete Freund's adjuvant and then boosted with lipoglycan (LG) purified from the Lupus S47-18 strain emulsified in incomplete Freund's adjuvant. The spleen from the mouse with the strongest post-immunization was fused with the NS-1 myeloma cells.
(§7) Immunoblotting. […]
Background: In western blotting, separated proteins are transferred to a membrane and probed.

In assay [5] the test system is purified LG from the S47-18 strain. Kind of assay: Direct binding ELISA, purified lipoglycan from S47-18 strain. Also on record: species or system Ruminococcus gnavus. As to conditions: antigen coated on ELISA plate. The protocol: as §1, with “At left, extracts of whole bacteria are shown for the RG1 strain (from a healthy donor), and the Lupus-derived strains; S107-48, S107-86, S47-18, and for the RG2 strain.” left out
(§8) Assays of antigen-reactive IgG antibodies. […] For ELISA bound IgG antibodies were detected with Fc-gamma-specific anti-murine IgG HRP (eBioscience, San Diego CA), and for multiplex bead-based assay with anti-mouse IgG (Fc-specific) F(ab′)2 PE (Jackson ImmunoResearch, West Grove PA). Data were acquired on a Magpix instrument (Luminex) and reported as mean fluorescence intensity (MFI) values, as previously described (Pelzek et al., 2017; Pelzek et al., 2018a; Radke et al., 2018). Plasma zonulin were quantitated with a commercial ELISA Kit. […]
(§9) Direct binding ELISA. […] Binding was detected with goat anti mouse IgG HRP conjugated at 1:10,000 (Jackson ImmunoResearch), then TMB substrate was added to develop the plate.

The test system of a further assay is extract of RG1 strain. Description: Immunoblot, RG1 extract. Conditions: strain from a healthy donor, lacks the lipoglycan. It is filed as binding, Ruminococcus gnavus. The protocol: as §5, §1, §6, §7
Assay [6] has as its system bacterial extract of Lupus strain S47-18. Kind of assay: Direct binding ELISA, S47-18 bacterial extract. Also on record: species or system Ruminococcus gnavus. Conditions: extract coated on ELISA plate. As for the experimental part: as §1, §2, §3
A general note: ELISA stands for enzyme-linked immunosorbent assay.

Assay [7] concerns extract of Lupus RG strain S47-18. Description: Immunoblot, S47-18 extract. In kind it is binding, Ruminococcus gnavus. As for the experimental part: as §5, §1, §6, §7
The test system of assay [8] is extract of the RG2 strain. Kind of assay: Immunoblot, RG2 extract. In kind it is binding, Ruminococcus gnavus. As for the experimental part:
as §5, §1, §6, §7

The test system of assay [9] is bacterial extract of the RG2 strain (CC55_001C). Description: Direct binding ELISA, RG2 bacterial extract. Conditions: extract coated on ELISA plate. The arrangement: species or system Ruminococcus gnavus. As for the experimental part:
as §1, §2, §3

The test system of assay [10] is bacterial extract of Lupus strain S107-48. Kind of assay: Direct binding ELISA, S107-48 bacterial extract. Also on record: species or system Ruminococcus gnavus. Conditions: extract coated on ELISA plate. The protocol: as §1, with “At left, extracts of whole bacteria are shown for the RG1 strain (from a healthy donor), and the Lupus-derived strains; S107-48, S107-86, S47-18, and for the RG2 strain.” left out
as §8, §9

For assay [11], the system named is purified LG from RG2 (RG2-LG). Description: Immunoblot, purified lipoglycan from RG2 strain. It is filed as binding, Ruminococcus gnavus. As for the experimental part:
as §5, §1, §4

The subject of assay [12] is purified LG from the S47-18 strain. Description: Immunoblot, purified lipoglycan from S47-18 strain. In kind it is binding, Ruminococcus gnavus. The protocol:
as §1, §4

In assay [13] the test system is extract of the RG1 type strain (ATCC29149). Description: Direct binding ELISA, RG1 bacterial extract. As to conditions: extract coated on ELISA plate; strain lacks the lipoglycan. Also on record: species or system Ruminococcus gnavus. As for the experimental part: as §1, with “At left, extracts of whole bacteria are shown for the RG1 strain (from a healthy donor), and the Lupus-derived strains; S107-48, S107-86, S47-18, and for the RG2 strain.” left out
as §8, §9

For assay [14], the system named is bacterial extract of Lupus strain S107-86. Kind of assay: Direct binding ELISA, S107-86 bacterial extract. Also on record: species or system Ruminococcus gnavus. As to conditions: extract coated on ELISA plate. The protocol: as §1, §2, §3

Numbering of substitutions follows the chain as printed. Where two headings read alike, the source gives them in different places.

For larazotide acetate, the “Gut barrier function (plasma FD4 after challenge), before vs after treatment” value was “normalized” in assay [1] (Lupus S47-18 strain colonized mice, p=0.01); “normalized” in assay [1] (Lupus S107-48 strain colonized mice, p=0.01); “normalized” in assay [1] (RG2 strain colonized mice, p=0.03).

B1: mAb 33.2.2: murine monoclonal anti-R. gnavus lipoglycan antibody; VH SEQ ID NO: 4, VL SEQ ID NO: 9 (antibody, V domains shown)
VH: EVQLQESGPSLVKPSQTLSLTCSVTGDSITSGYWNWIRKFPGNKLEYLGYINYSGSTYYNPSLRSRISITRDTSKNQYYLQLNAVTTEDTATYYCARYYYHDDSYAMDNWGQGTSVTVSS
VL: DIQMNQSPSSLSASLGDTITITCHASQNINVWLSWFQQKPGNIPKLLIYKASNLHTGVPSRFSGTGSGTGFTLTISSLQPEDIATYYCQQGQSYPLTFGAGTKLELK
For the molecule B1, the “ELISA reactivity with purified LG from RG2 strain” value is “strongly react” in [2] and “reactivity” in [2] (listed as 33.2.3). Also, the “Immunoblot reactivity with LG oligobands in S107-86 extract” value in assay [3] is “recognized oligoband antigen”. For the same molecule, the “Immunoblot reactivity with LG oligobands in S107-48 extract” value in assay [4] is listed as “recognized oligoband antigen”. Further, the “ELISA reactivity with purified LG from S47-18 strain” value in [5] is “strongly react”. Also, the “Immunoblot reactivity with RG1 extract” value in the assay with extract of RG1 strain is on record as “no reactivity”. In addition, the “ELISA reactivity with extract of Lupus strain S47-18” value in [6] was “reactive”; in assay [6] (listed as 33.2.3) it was “reactivity”. Besides, the “Immunoblot reactivity with LG oligobands in S47-18 extract” value in assay [7] is “recognized oligoband antigen”. The “Immunoblot reactivity with LG oligobands in RG2 extract” value in assay [8] is reported as “recognized oligoband antigen”. In addition, the “ELISA reactivity with extract of RG2 strain” value in assay [9] is listed as “reactive”; in assay [9] (listed as 33.2.3) it was “reactivity”. For the same molecule, the “ELISA reactivity with extract of Lupus strain S107-48” value in assay [10] was “reactive”. In [11], the “Immunoblot reactivity with purified LG from RG2 strain” value is reported as “bound”. The “Immunoblot reactivity with purified LG from S47-18 strain” value in [12] is listed as “bound”. Besides, the “ELISA reactivity with RG1 type strain extract” value in assay [13] was “non-reactive”. For the same molecule, the “ELISA reactivity with extract of Lupus strain S107-86” value in assay [14] was “reactive”; in assay [14] (listed as 33.2.3), “reactivity”.

B2: mAb 34.2.2: murine monoclonal anti-R. gnavus lipoglycan antibody; VH SEQ ID NO: 13, VL SEQ ID NO: 15 (antibody, V domains shown)
VH: B1 VH with L48M, S56T, R64K, A84S, H101Y, D103S, N109Y
VL: B1 VL with T65S
Regarding B2, the “ELISA reactivity with purified LG from RG2 strain” value in assay [2] was “strongly react”; in assay [2] (listed as 34.2.2), “reactivity”. In addition, the “Immunoblot reactivity with LG oligobands in S107-86 extract” value in assay [3] was “recognized oligoband antigen”. Moreover, the “Immunoblot reactivity with LG oligobands in S107-48 extract” value in [4] was “recognized oligoband antigen”. Also, the “ELISA reactivity with purified LG from S47-18 strain” value in [5] is on record as “strongly react”. In addition, the “Immunoblot reactivity with RG1 extract” value in the assay with extract of RG1 strain is on record as “no reactivity”. For the same molecule, the “ELISA reactivity with extract of Lupus strain S47-18” value in [6] is reported as “reactive”; in [6] (listed as 34.2.2), “reactivity”. Moreover, in [7], the “Immunoblot reactivity with LG oligobands in S47-18 extract” value is on record as “recognized oligoband antigen”. In assay [8], the “Immunoblot reactivity with LG oligobands in RG2 extract” value is “recognized oligoband antigen”. Also, the “ELISA reactivity with extract of RG2 strain” value in assay [9] is reported as “reactive”; in assay [9] (listed as 34.2.2) it was “reactivity”. In addition, in assay [10], the “ELISA reactivity with extract of Lupus strain S107-48” value is “reactive”. The “Immunoblot reactivity with purified LG from RG2 strain” value in assay [11] is listed as “bound”. Further, the “Immunoblot reactivity with purified LG from S47-18 strain” value in [12] was “bound”. Moreover, the “ELISA reactivity with RG1 type strain extract” value in assay [13] is listed as “non-reactive”. For the same molecule, the “ELISA reactivity with extract of Lupus strain S107-86” value in [14] is “reactive”; in [14] (listed as 34.2.2), “reactivity”.
